# Experimental data as given in PMC10724965, “FRIZZLE PANICLE (FZP) regulates rice spikelets development through modulating cytokinin metabolism”.
# Target: MBP-FZP (Oryza sativa, UniProt Q8H3Q1 1-318)
# Assay: EMSA; 5 nmol protein, 2 nmol probe (so in the source); shift substantially weakened by excess unlabeled probe; EMSA: 10 uL, 2 uL 5x EMSA/Gel-shift binding buffer (Beyotime?), 5 nmol protein, 2 nmol biotin-labeled probe; salt, pH and temperature not given
# Settings: protein: recombinant; tags: MBP (pMAL-c2x); label: biotin; blunt
# Chain of MBP-FZP (Q8H3Q1 whole entry): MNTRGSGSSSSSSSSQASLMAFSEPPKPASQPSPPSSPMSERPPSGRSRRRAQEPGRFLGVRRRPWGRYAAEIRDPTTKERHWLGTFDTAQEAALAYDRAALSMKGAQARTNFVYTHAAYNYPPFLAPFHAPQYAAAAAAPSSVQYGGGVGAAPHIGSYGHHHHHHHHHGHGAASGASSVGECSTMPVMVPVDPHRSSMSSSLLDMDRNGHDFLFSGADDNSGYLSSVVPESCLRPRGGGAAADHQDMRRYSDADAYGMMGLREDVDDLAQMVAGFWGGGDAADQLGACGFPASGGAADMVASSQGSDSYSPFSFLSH
binder,measurement,value
"EMSA-DST-probe (GCC-box, DST promoter) (dsDNA) DNA 1: GCACAAGACCCGCAGGCCCAATGGCGAGCCGCCACGTGTACCCGCGCCTCCCCTCCCCGGCC DNA 2: GGCCGGGGAGGGGAGGCGCGGGTACACGTGGCGGCTCGCCATTGGGCCTGCGGGTCTTGTGC",binding result,binds
